Laboratory results from patent US20260297144 (published 2026).

Assays:
[1] = target: T1, C3b (human, UniProt P01024); assay: SPR steady state, Fc 4-1, 10C
[2] = target: T1, C3b; assay: SPR steady state, Fc 2-1, 10C
[3] = target: T1, C3b; assay: SPR steady state, Fc 3-1, 10C

T1 sequence (P01024 23-667, chain 1 of 2): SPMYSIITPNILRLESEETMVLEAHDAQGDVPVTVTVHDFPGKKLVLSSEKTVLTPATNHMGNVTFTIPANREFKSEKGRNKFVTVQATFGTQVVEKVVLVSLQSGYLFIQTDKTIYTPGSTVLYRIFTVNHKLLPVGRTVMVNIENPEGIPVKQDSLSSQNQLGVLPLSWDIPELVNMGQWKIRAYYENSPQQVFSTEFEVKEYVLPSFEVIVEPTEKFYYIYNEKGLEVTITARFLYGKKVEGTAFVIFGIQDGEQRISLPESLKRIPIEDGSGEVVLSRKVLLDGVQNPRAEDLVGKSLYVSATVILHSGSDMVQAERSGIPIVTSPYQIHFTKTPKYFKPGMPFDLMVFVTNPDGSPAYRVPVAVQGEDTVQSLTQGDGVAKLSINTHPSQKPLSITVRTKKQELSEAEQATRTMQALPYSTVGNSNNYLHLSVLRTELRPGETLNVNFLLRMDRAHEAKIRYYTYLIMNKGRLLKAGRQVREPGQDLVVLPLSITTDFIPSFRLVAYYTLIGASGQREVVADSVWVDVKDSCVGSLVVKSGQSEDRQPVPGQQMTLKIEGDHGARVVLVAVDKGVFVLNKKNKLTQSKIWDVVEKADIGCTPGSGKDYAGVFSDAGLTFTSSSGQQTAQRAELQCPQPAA
T1 sequence (P01024 749-1663, chain 2 of 2): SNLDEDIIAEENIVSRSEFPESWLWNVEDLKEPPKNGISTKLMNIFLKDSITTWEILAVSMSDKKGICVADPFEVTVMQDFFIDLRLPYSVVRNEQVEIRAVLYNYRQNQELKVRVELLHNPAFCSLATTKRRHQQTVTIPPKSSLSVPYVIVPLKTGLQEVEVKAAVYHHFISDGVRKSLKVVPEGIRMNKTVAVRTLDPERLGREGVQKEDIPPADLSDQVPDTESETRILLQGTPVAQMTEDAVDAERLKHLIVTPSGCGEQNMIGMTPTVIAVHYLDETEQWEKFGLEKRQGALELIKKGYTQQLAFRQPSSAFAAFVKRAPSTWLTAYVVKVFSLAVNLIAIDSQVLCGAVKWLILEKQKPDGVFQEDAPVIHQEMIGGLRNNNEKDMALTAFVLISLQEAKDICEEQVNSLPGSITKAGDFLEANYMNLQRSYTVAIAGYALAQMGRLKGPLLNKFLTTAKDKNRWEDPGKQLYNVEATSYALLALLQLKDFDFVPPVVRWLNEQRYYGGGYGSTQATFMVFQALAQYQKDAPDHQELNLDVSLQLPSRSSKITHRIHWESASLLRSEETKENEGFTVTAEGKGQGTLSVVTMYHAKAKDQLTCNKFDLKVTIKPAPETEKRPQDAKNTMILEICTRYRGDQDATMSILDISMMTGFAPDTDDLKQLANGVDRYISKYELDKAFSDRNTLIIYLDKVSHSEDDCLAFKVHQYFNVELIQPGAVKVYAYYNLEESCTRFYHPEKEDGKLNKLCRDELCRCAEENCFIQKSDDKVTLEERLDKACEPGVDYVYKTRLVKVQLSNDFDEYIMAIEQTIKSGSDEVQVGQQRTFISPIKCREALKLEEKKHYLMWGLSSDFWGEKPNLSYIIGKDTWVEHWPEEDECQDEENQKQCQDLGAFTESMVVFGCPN

Kd [1] [nM]	Kd [2] [nM]	Kd [3] [nM]	Binder
51	48.2	42.9	Sial-moss FH (protein) EDCNELPPRRNTEILTGSWSDQTYPEGTQAIYKCRPGYRSLGNIIMVCRKGEWVALNPLRKCQKRPCGHPGDTPFGTFTLTGGNVFEYGVKAVYTCNEGYQLLGEINYRECDTDGWTNDIPICEVVKCLPVTAPENGKIVSSAMEPDREYHFGQAVRFVCNSGYKIEGDEEMHCSDDGFWSKEKPKCVEISCKSPDVINGSPISQKIIYKENERFQYKCNMGYEYSERGDAVCTESGWRPLPSCEEKSCDNPYIPNGDYSPLRIKHRTGDEITYQCRNGFYPATRGNTAKCTSTGWIPAPRCTLKPCDYPDIKHGGLYHENMRRPYFPVAVGKYYSYYCDEHFETPSGSYWDHIHCTQDGWSPAVPCLRKCYFPYLENGYNQNYGRKFVQGKSIDVACHPGYALPKAQTTVTCMENGWSPTPRCIRVKTCSKSSIDIENGFISESQYTYALKEKAKYQCKLGYVTADGETSGSITCGKDGWSAQPTCIKSCDIPVFMNARTKNDFTWFKLNDTLDYECHDGYESNTGSTTGSIVCGYNGWSDLPICYERECELPKIDVHLVPDRKKDQYKVGEVLKFSCKPGFTIVGPNSVQCYHFGLSPDLPICKEQVQSCGPPPELLNGNVKEKTKEEYGHSEVVEYYCNPRFLMKGPNKIQCVDGEWTTLPVCIVEESTCGDIPELEHGWAQLSSPPYYYGDSVEFNCSESFTMIGHRSITCIHGVWTQLPQCVAIDKLKKCKSSNLIILEEHLKNKKEFDHNSNIRYRCRGKEGWIHTVCINGRWDPEVNCSMAQIQLCPPPPQIPNSHNMTTTLNYRDGEKVSVLCQENYLIQEGEEITCKDGRWQSIPLCVEKIPCSQPPQIEHGTINSSRSSQESYAHGTKLSYTCEGGFRISEENETTCYMGKWSSPPQCEGLPCKSPPEISHGVVAHMSDSYQYGEEVTYKCFEGFGIDGPAIAKCLGEKWSHPPSCIKTDCLSLPSFENAIPMGEKKDVYKAGEQVTYTCATYYKMDGASNVTCINSRWTGRPTCRDTSCVNPPTVQNAYIVSRQMSKYPSGERVRYQCRSPYEMFGDEEVMCLNGNWTEPPQCKDSTGKCGPPPPIDNGDITSFPLSVYAPASSVEYQCQNLYQLEGNKRITCRNGQWSEPPKCLHPCVISREIMENYNIALRWTAKQKLYSRTGESVEFVCKRGYRLSSRSHTLRTTCWDGKLEYPTCAKR
144	110	104	Serum derived FH (sd-FH) (protein) EDCNELPPRRNTEILTGSWSDQTYPEGTQAIYKCRPGYRSLGNVIMVCRKGEWVALNPLRKCQKRPCGHPGDTPFGTFTLTGGNVFEYGVKAVYTCNEGYQLLGEINYRECDTDGWTNDIPICEVVKCLPVTAPENGKIVSSAMEPDREYHFGQAVRFVCNSGYKIEGDEEMHCSDDGFWSKEKPKCVEISCKSPDVINGSPISQKIIYKENERFQYKCNMGYEYSERGDAVCTESGWRPLPSCEEKSCDNPYIPNGDYSPLRIKHRTGDEITYQCRNGFYPATRGNTAKCTSTGWIPAPRCTLKPCDYPDIKHGGLYHENMRRPYFPVAVGKYYSYYCDEHFETPSGSYWDHIHCTQDGWSPAVPCLRKCYFPYLENGYNQNYGRKFVQGKSIDVACHPGYALPKAQTTVTCMENGWSPTPRCIRVKTCSKSSIDIENGFISESQYTYALKEKAKYQCKLGYVTADGETSGSITCGKDGWSAQPTCIKSCDIPVFMNARTKNDFTWFKLNDTLDYECHDGYESNTGSTTGSIVCGYNGWSDLPICYERECELPKIDVHLVPDRKKDQYKVGEVLKFSCKPGFTIVGPNSVQCYHFGLSPDLPICKEQVQSCGPPPELLNGNVKEKTKEEYGHSEVVEYYCNPRFLMKGPNKIQCVDGEWTTLPVCIVEESTCGDIPELEHGWAQLSSPPYYYGDSVEFNCSESFTMIGHRSITCIHGVWTQLPQCVAIDKLKKCKSSNLIILEEHLKNKKEFDHNSNIRYRCRGKEGWIHTVCINGRWDPEVNCSMAQIQLCPPPPQIPNSHNMTTTLNYRDGEKVSVLCQENYLIQEGEEITCKDGRWQSIPLCVEKIPCSQPPQIEHGTINSSRSSQESYAHGTKLSYTCEGGFRISEENETTCYMGKWSSPPQCEGLPCKSPPEISHGVVAHMSDSYQYGEEVTYKCFEGFGIDGPAIAKCLGEKWSHPPSCIKTDCLSLPSFENAIPMGEKKDVYKAGEQVTYTCATYYKMDGASNVTCINSRWTGRPTCRDTSCVNPPTVQNAYIVSRQMSKYPSGERVRYQCRSPYEMFGDEEVMCLNGNWTEPPQCKDSTGKCGPPPPIDNGDITSFPLSVYAPASSVEYQCQNLYQLEGNKRITCRNGQWSEPPKCLHPCVISREIMENYNIALRWTAKQKLYSRTGESVEFVCKRGYRLSSRSHTLRTTCWDGKLEYPTCAKR
